Data published in patent EP2431054A2 (Human Genome Sciences, Inc., dated 2012).
Values belong to the binder of their own block, whether it stands above or below them.

How the values were obtained:
TACI-Fc fusion protein = target: T1, TACI-Fc fusion protein (Homo sapiens (Human), UniProt O14836 1-159); test: BIAcore (SPR), TACI-Fc amine-coupled to CM5 chip, TNF-epsilon as analyte
T1 construct: The dimeric form was enriched by size exclusion; also called full-length TACI-Fc; soluble TACI-Fc; not shown: Fc portion from vector pC4-Fc
T1 sequence: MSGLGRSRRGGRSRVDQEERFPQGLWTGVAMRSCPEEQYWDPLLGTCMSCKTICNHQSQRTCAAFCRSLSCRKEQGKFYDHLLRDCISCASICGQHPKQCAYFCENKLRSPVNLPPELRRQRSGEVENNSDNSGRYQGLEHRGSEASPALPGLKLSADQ

[1] = target: FLAG-epitope-tagged TNF-epsilon (in conditioned medium) (human) (UniProt O75888); test: co-immunoprecipitation with M2 anti-FLAG antibody, Western detection with anti-FLAG antibody

Kd (TACI-Fc fusion protein): 6 nM
B1: TNF-epsilon, trimeric form isolated by size exclusion chromatography (ligand)
chain: AVLTQKQKNDSDVTEVMWQPALRRGRGLQAQGYGVRIQDAGVYLLYSQVLFQDVTFTMGQVVSREGQGRQETLFRCIRSMPSHPDRAYNSCYSAGVFHLHQGDILSVIIPRARAKLNLSPHGTFLGFVKL
notes: This is the protein flowed over the TACI-Fc chip

percent of the TNF-epsilon present in the conditioned medium found in the immunoprecipitated TACI-Fc-TNF-epsilon complex [1]: 20%
B2: TACI-Fc fusion protein (Fc fusion, not shown: a dimerising Fc or GST)
chain: T1 sequence
